Measurements reported in patent US20160002326A1 (AbbVie / Abbott, published 2016).

How the values were obtained:
Assay in all cases: direct ELISA
TWEAK = target: T1, TWEAK (UniProt O43508 94-249, limits assumed)
T1 sequence (looked up): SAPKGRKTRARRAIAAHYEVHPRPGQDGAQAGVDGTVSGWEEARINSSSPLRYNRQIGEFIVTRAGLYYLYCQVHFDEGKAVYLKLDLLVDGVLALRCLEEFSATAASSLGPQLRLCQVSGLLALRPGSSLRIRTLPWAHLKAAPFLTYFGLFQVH

4-1BB ligand = 4-1BB ligand (UniProt P41273 71-254, limits assumed)
GITR ligand = target: T2, GITR ligand (UniProt Q9UNG2 52-177)
T2 sequence (looked up): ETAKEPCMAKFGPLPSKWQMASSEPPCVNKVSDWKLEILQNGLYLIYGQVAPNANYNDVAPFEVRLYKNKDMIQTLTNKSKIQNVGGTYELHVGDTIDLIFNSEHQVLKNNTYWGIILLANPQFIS

IL-17E (IL-25) = target: T3, IL-17E (IL-25) (UniProt Q9H293 33-177)
T3 sequence (looked up): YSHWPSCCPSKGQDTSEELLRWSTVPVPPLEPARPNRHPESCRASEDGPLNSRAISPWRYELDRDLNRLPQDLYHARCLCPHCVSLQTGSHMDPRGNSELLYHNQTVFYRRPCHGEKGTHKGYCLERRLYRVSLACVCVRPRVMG

EDA-A2 = target: T4, EDA-A2 (UniProt Q92838-3 245-389, limits assumed)
T4 sequence (looked up): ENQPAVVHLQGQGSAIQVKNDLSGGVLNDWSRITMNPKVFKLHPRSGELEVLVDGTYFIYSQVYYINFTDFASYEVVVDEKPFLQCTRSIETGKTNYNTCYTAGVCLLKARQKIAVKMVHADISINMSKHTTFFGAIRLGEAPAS

BAFF = BAFF (UniProt Q9Y275 134-285)
Chain of BAFF (Q9Y275 134-285 limits assumed): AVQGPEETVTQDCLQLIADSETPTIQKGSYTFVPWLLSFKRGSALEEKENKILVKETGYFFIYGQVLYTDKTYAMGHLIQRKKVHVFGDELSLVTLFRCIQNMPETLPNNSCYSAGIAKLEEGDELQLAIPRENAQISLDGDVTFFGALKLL

TL1A = target: T5, TL1A (UniProt O95150 72-251)
T5 sequence (looked up): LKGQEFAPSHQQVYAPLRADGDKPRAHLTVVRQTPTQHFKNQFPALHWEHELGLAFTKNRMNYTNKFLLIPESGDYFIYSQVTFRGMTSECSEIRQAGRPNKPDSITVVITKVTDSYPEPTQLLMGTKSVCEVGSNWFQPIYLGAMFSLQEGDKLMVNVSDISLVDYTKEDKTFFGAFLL

IL-17B = target: T6, IL-17B (UniProt Q9UHF5 21-180)
T6 sequence (looked up): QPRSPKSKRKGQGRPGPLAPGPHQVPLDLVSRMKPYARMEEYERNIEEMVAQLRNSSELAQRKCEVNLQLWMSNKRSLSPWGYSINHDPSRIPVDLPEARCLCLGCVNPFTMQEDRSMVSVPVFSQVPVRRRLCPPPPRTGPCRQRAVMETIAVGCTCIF

LIGHT = LIGHT (UniProt O43557 74-240, limits assumed)
Chain of LIGHT (O43557 74-240 limits assumed): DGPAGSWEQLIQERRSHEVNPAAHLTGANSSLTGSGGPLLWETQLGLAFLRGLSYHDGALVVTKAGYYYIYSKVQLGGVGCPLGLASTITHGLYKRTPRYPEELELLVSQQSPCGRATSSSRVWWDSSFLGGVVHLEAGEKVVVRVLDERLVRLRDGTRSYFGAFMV

OX40 ligand = target: T7, OX40 ligand (UniProt P23510 51-183)
T7 sequence (looked up): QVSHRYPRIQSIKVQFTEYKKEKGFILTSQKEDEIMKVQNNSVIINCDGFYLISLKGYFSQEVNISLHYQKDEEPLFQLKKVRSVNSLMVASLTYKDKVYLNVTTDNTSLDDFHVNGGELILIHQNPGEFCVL

Fas ligand = target: T8, Fas ligand (UniProt P48023 134-281, limits assumed)
T8 sequence (looked up): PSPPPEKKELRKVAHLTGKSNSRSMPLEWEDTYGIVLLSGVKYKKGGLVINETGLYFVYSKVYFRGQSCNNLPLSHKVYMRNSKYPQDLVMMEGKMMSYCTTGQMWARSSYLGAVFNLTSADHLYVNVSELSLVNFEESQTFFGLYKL

IL-17D = target: T9, IL-17D (UniProt Q8TAD2 16-202, limits assumed)
T9 sequence (looked up): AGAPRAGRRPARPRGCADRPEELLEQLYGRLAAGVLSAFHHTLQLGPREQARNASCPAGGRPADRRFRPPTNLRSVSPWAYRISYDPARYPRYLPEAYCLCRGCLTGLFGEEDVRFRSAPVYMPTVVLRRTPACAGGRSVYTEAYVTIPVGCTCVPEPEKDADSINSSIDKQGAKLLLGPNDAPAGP

RANK ligand = target: T10, RANK ligand (UniProt O14788 140-317)
T10 sequence (looked up): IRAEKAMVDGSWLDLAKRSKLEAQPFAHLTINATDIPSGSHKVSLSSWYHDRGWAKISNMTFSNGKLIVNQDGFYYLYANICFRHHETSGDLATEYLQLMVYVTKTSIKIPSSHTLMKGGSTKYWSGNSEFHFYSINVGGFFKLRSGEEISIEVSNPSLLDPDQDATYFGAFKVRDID

lymphotoxin a = target: T11, lymphotoxin a (UniProt P01374 35-205)
T11 construct: also called lymphotoxin alpha
T11 sequence (looked up): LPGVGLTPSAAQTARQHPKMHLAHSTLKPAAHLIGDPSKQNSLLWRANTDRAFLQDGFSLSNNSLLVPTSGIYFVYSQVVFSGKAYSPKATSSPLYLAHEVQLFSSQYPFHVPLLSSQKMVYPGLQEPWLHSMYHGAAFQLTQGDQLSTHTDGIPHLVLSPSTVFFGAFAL

CD30 ligand = target: T12, CD30 ligand (UniProt P32971 63-234)
T12 sequence (looked up): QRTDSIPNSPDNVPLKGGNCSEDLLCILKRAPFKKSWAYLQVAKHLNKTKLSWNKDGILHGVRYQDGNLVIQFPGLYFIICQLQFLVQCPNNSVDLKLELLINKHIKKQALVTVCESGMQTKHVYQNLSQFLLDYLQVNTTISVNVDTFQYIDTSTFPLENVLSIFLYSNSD

IL-17C = target: T13, IL-17C (UniProt Q9P0M4 19-197)
T13 sequence (looked up): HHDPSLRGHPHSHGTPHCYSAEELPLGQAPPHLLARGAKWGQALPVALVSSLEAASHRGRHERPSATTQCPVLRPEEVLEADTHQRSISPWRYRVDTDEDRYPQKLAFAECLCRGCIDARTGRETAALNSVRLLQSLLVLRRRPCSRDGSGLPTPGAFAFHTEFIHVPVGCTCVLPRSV

Measured: binding result

Chain of 4-1BB ligand (P41273 71-254 limits assumed): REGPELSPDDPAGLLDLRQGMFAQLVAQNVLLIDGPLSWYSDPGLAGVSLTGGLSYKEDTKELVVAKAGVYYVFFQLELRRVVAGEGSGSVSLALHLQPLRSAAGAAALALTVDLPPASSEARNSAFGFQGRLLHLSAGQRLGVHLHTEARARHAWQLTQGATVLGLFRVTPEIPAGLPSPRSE

B1: ABBV-257 anti-human TNF and IL-17 DVD-Ig binding protein (bispecific antibody, human IgG1, kappa, L234A L235A)
heavy: EVQLVQSGAEVKKPGASVKVSCKASGYTFANYGIIWVRQAPGQGLEWMGWINTYTGKPTYAQKFQGRVTMTTDTSTSTAYMELSSLRSEDTAVYYCARKLFTTMDVTDNAMDYWGQGTTVTVSSGGGGSGGGGSEVQLVQSGAEVKKPGSSVKVSCKASGYTFTDYEIHWVRQAPGQGLEWMGVNDPESGGTFYNQKFDGRVTLTADESTSTAYMELSSLRSEDTAVYYCTRYSKWDSFDGMDYWGQGTTVTVSSASTKGPSVFPLAPSSKSTSGGTAALGCLVKDYFPEPVTVSWNSGALTSGVHTFPAVLQSSGLYSLSSVVTVPSSSLGTQTYICNVNHKPSNTKVDKKVEPKSCDKTHTCPPCPAPEAAGGPSVFLFPPKPKDQLMISRTPEVTCVVVDVSHEDPEVKFNWYVDGVEVHNAKTKPREEQYNSTYRVVSVLTVLHQDWLNGKEYKCKVSNKALPAPIEKTISKAKGQPREPQVYTLPPSREEMTKNQVSLTCLVKGFYPSDIAVEWESNGQPENNYKTTPPVLDSDGSFFLYSKLTVDKSRWQQGNVFSCSVLHEALHNHYTQKSLSLSPGK
light: DIQMTQSPSSLSASVGDRVTITCRASQDISQYLNWYQQKPGKAPKLLIYYTSRLQSGVPSRFSGSGSGTDFTLTISSLQPEDFATYFCQQGNTWPPTFGQGTKLEIKRGGSGGGGSGDIQMTQSPSSLSASVGDRVTITCRASSGIISYIDWFQQKPGKAPKRLIYATFDLASGVPSRFSGSGSGTDYTLTISSLQPEDFATYYCRQVGSYPETFGQGTKLEIKRTVAAPSVFIFPPSDEQLKSGTASVVCLLNNFYPREAKVQWKVDNALQSGNSQESVTEQDSKDSTYSLSSTLTLSKADYEKHKVYACEVTHQGLSSPVTKSFNRGEC
modifications: N-linked glycans on the heavy chain at the asparagine commonly modified on IgG1 antibodies (fucosylated biantennary oligosaccharides with 0, 1 or 2 galactose residues)
notes: It says the constant region carries L234A, L235A and also T250Q and M428L; also called Anti-IL-17/TNF DVD-Ig Protein
no binding: TWEAK | 4-1BB ligand | GITR ligand | IL-17E (IL-25) | EDA-A2 | BAFF | TL1A | IL-17B | LIGHT | OX40 ligand | Fas ligand | IL-17D | RANK ligand | lymphotoxin a | CD30 ligand | IL-17C
